B1: NJT3 (VHH)
VHH: QVQLVETGGGLAQAGGSLRLSCAASGRTLSGYAMGWFRQAPGKEREFVAAISWSGRNTYYDYTVQGRFTISKDNAKNTVNLQMNSLKPEDTAVYYCAVSRSLDEFGDGYEMDYWGDGTQVTVSS
notes: The label differs between experiments (biotin, Alexa-647); also called anti-TNC nanobody NJT3; 64Cu-NJT3; source: selected from alpaca phage-display library B; expressed and purified by methods previously described; not shown: sortase tag, C-terminal, kept
B2: NJT6 (VHH)
VHH: QVQLVETGGDLVQPGGSLRLSCAASGLTLDYYAIGWVRQAPGKEREGVSCITPQDGNTYYDDSVMGRFTILRDNAKNMVYLQMNNLKPEDTAVYFCAAAGALTLDPSEYEYWGQGTQVTVSS
notes: The label differs between experiments (biotin, Alexa-647); also called anti-TNC nanobody NJT6; 64Cu-NJT6; source: selected from alpaca phage-display library B; expressed and purified by methods previously described; not shown: sortase tag, C-terminal, kept
B3: NJT4 (VHH)
VHH: QVQLVESGGGLVQPGGSLRLSCAASGFTFSSYTMRWYRQAPGKERELVAFIGVAGGSTKYADSVKGRFTISRDNTKNTVYLQMNTLKPEDTAVYYCYAPLTPYWGQGTQVTVSS
notes: The label differs between experiments (biotin, Alexa-647); also called anti-TNC nanobody NJT4; 64Cu-NJT4; source: selected from alpaca phage-display library B; expressed and purified by methods previously described; not shown: sortase tag, C-terminal, kept

These binders were tested against T1, full-length human TNC protein (Homo sapiens, UniProt P24821) (assay: far-Western, overlay or dot blot; immunoblot of human TNC protein probed with the nanobodies). Details: both partners purified.
T1 construct: tenascin-C, human, full-length recombinant protein (Sigma); also called human tenascin-C; hTNC; source: bought: Sigma-Aldrich (purified, recombinant)
T1 sequence (P24821 23-2201): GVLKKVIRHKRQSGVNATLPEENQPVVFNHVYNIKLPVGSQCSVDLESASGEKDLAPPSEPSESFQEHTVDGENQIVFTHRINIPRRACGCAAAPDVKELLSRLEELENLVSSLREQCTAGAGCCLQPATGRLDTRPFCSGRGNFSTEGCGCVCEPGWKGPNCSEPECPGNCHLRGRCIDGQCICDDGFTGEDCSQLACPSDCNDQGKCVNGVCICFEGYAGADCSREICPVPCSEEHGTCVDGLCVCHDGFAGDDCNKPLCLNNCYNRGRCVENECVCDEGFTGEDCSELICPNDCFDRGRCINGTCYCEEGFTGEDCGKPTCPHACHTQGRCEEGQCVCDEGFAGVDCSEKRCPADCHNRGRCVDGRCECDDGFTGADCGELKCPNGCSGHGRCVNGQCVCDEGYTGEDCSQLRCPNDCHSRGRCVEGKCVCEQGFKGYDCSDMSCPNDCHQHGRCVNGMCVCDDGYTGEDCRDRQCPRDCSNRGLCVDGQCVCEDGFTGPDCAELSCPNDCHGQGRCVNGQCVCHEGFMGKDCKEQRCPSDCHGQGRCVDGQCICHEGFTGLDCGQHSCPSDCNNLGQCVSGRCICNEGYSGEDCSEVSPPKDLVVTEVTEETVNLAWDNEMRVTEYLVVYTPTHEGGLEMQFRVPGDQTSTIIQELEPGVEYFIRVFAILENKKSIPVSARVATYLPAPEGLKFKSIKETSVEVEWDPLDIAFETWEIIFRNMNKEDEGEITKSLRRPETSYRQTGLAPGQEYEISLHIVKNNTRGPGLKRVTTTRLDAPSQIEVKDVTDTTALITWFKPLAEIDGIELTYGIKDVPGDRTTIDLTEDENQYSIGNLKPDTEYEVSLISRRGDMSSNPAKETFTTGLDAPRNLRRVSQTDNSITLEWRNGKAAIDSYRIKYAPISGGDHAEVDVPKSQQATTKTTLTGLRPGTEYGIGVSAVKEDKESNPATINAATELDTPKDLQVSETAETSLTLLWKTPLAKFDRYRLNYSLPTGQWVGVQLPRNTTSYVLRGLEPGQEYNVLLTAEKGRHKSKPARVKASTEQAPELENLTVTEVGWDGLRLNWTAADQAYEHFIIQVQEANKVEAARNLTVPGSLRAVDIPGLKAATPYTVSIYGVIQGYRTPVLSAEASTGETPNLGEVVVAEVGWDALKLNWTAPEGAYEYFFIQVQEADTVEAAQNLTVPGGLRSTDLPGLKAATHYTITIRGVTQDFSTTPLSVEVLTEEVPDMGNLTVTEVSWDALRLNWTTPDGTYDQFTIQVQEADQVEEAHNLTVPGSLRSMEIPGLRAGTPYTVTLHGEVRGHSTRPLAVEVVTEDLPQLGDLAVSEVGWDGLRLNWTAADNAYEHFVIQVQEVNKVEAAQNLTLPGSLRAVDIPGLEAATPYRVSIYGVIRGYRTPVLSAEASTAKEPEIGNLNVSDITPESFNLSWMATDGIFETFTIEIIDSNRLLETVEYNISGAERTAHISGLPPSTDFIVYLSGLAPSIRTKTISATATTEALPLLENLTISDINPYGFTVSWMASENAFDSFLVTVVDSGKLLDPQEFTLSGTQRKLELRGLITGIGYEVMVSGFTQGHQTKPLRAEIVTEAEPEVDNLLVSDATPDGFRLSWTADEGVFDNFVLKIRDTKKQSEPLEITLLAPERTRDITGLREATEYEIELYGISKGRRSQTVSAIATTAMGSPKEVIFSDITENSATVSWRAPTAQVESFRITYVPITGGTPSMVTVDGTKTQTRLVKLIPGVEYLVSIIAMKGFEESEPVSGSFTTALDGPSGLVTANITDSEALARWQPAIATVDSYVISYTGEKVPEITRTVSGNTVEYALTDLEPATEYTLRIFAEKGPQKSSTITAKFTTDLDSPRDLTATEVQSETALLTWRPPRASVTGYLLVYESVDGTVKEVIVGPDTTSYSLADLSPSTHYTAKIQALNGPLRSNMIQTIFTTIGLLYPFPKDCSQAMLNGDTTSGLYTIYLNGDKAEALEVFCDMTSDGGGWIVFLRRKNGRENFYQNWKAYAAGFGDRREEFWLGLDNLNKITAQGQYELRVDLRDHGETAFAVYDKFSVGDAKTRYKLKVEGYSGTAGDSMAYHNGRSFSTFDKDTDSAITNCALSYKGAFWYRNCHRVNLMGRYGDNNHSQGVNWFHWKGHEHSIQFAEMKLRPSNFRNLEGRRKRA

Question: Does B1 bind?
Answer: binds

Question: Does B2 bind?
Answer: binds

Question: Does B3 bind?
Answer: binds

Each binder was assayed against T2, mouse TNC on tissue sections of lung metastases derived from murine TNBC cell line 4T1 (Mus musculus (4T1 metastases in BALB/c), UniProt Q80YX1) (assay: immunostaining of cells or tissue; IHC with the nanobodies on tissue sections of lung metastases (LM2 in NSG mice; 4T1 in BALB/c mice)). Details: one partner purified.
T2 construct: tenascin-C, mouse, endogenous in 4T1 lung metastases; source: endogenous, 4T1 lung metastases in BALB/c mice, tissue sections
T2 sequence (Q80YX1 23-2110): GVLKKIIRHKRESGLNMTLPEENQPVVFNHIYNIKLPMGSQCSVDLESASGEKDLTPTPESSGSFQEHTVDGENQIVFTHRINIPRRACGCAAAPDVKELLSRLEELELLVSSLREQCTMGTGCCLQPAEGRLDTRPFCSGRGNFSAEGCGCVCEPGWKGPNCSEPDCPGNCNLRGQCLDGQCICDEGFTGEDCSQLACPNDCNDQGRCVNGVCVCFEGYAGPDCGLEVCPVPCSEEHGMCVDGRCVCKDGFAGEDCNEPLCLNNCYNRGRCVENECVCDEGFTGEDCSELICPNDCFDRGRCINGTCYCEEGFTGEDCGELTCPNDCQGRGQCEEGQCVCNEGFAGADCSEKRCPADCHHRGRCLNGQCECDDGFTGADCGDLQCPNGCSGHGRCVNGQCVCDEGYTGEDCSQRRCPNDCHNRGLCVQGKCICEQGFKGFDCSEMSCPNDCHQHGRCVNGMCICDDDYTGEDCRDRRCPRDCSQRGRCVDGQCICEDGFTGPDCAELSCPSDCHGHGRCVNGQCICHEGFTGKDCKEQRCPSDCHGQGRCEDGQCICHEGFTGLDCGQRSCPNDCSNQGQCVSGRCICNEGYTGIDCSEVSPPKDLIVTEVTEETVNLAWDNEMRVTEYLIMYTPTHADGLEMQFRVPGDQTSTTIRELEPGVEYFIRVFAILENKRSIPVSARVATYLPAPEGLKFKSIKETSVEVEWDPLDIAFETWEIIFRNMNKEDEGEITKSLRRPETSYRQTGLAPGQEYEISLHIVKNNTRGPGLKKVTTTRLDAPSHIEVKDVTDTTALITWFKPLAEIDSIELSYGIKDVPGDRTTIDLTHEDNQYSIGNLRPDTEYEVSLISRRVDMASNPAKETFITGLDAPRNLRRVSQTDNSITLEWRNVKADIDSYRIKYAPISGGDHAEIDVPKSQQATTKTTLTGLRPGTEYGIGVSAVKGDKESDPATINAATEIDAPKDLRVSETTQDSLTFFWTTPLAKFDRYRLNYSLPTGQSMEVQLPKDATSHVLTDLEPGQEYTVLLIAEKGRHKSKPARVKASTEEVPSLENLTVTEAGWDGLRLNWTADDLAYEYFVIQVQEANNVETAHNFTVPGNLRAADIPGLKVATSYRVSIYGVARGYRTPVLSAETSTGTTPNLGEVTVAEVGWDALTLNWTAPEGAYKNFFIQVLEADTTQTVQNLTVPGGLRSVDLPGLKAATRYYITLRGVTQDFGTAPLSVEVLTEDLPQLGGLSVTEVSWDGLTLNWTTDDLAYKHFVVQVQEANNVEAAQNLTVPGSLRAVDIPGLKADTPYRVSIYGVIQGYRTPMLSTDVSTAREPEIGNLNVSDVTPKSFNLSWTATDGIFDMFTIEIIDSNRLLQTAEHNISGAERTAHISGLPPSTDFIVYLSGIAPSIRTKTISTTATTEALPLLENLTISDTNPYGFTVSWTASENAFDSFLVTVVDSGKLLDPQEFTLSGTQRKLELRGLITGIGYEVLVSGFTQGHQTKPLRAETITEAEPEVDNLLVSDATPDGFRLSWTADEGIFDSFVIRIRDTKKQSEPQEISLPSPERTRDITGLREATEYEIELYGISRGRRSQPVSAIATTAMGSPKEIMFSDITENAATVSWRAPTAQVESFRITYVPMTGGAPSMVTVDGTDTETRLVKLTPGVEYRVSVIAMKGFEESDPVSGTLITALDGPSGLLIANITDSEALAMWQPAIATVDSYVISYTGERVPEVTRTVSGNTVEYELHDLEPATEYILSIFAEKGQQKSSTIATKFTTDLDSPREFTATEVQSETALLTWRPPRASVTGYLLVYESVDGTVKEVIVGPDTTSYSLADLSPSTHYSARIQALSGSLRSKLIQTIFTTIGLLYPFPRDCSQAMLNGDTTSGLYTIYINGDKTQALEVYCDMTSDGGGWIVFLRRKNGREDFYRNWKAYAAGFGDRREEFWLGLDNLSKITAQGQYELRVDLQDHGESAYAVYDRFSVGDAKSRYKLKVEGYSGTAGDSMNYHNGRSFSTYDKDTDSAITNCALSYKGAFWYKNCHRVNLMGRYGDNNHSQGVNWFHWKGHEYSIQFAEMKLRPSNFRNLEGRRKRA

Question: Does B1 bind?
Answer: no binding

Question: Does B2 bind?
Answer: no binding

Question: Does B3 bind?
Answer: no binding

The binders below were run against T3, human TNC in the ECM of tumors and lung metastases derived from human TNBC cell line LM2 (Homo sapiens (LM2 cells), UniProt P24821) (assay: two-photon microscopy of resected organs after intravenous injection of labelled nanobody; Alexa-647 labelled nanobodies injected via the tail vein into NSG mice with LM2-TGL-ZsGreen tumors; organs resected 2 hours after injection and imaged). Details: one partner purified.
T3 construct: tenascin-C, human, made by LM2 human TNBC cells in xenografts; also called hTNC; TNC fibrils; source: endogenous, ECM of LM2 (LM2-TGL-ZsGreen) tumors and lung metastases in NSG mice
T3 sequence (P24821 23-2201): as the sequence (P24821 23-2201) above

Question: Does B1 bind?
Answer: binds

Question: Does B2 bind?
Answer: binds

Question: Does B3 bind?
Answer: binds

Source: publication PMC10267678, “Proteomic Profiling of Extracellular Matrix Components from Patient Metastases Identifies Consistently Elevated Proteins for Developing Nanobodies That Target Primary Tumors and Metastases” (Cancer Research, 2023)
